Assay results published in the supplement of paper PMC7125110.
± gives the standard error. Fewer inactive variants are shown than the library holds.

B1: glmS ribozyme (parent)
chain: AUAAAAGCGCCAGAACUACAGAAAUGUAGUUGACGAGGAGGAGGUUUAUCGAAUUUUCGGCGGAUGCCUCCAAA

Legend:
Conditions in all cases: with glucosamine-6-phosphate
[1] = variants of: B1; test: self-cleavage kobs at 40 uM GlcN6P; higher = faster cleavage; RNA array
Procedure, shortened: (§1)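 On sequenced MiSeq chips, barcoded ribozyme variants were made in situ by E. coli RNA polymerase and followed at 37 °C through a hybridised Cy3 probe. Glucosamine-6-phosphate was flowed in at 40 μM to 10 mM in HEPES/KCl/Mg(OAc)2 buffer. Exponential fits to normalised per-tile medians gave kobs, and weighted Michaelis–Menten fits gave kcat and KM.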

[2] = variants of: B1; test: self-cleavage kobs at 160 uM GlcN6P; higher = faster cleavage; RNA array
Procedure, shortened: as §1

[3] = variants of: B1; test: self-cleavage kobs at 640 uM GlcN6P; higher = faster cleavage; RNA array
Procedure, shortened: as §1

[4] = variants of: B1; test: self-cleavage kobs at 2500 uM GlcN6P; higher = faster cleavage; RNA array
Procedure, shortened: as §1

[5] = variants of: B1; test: self-cleavage kobs at 10000 uM GlcN6P; higher = faster cleavage; RNA array
Procedure, shortened: as §1

Variant	self-cleavage kobs at 40 uM GlcN6P [1] [s⁻¹]	self-cleavage kobs at 160 uM GlcN6P [2] [s⁻¹]	self-cleavage kobs at 640 uM GlcN6P [3] [s⁻¹]	self-cleavage kobs at 2500 uM GlcN6P [4] [s⁻¹]	self-cleavage kobs at 10000 uM GlcN6P [5] [s⁻¹]
G7C U30A	< 1e-05	< 1e-05	< 1e-05	< 1e-05	< 1e-05
U30A A39U G63U	< 1e-05	–	< 1e-05	< 1e-05	–
C11G A39G U46G C61U U65C C68A	< 1e-05	–	–	–	< 1e-05
U47G U69A	5.4e-05 ± 1.7e-05	7.68e-05 ± 1.4e-05	7.46e-05 ± 1.4e-05	0.000193 ± 3.4e-05	8.6e-05 ± 1.4e-05
C8U C10A	< 1e-05	< 1e-05	< 1e-05	< 1e-05	< 1e-05
G9A U57G C67U	< 1e-05	–	–	–	< 1e-05
A33U A39U G44C G63C C67G	< 1e-05	–	–	–	< 1e-05
G7U G63A	< 1e-05	–	–	–	< 1e-05
U30A G51U U54A	< 1e-05	–	–	–	< 1e-05
C8U A12C A15G C67U	< 1e-05	–	–	–	< 1e-05
C8U C16A	< 1e-05	–	< 1e-05	< 1e-05	< 1e-05
C34G G40C	< 1e-05	–	< 1e-05	–	< 1e-05
C50G G66A C70A	7.79e-05 ± 2.3e-05	–	–	–	–
C8U G62A	< 1e-05	< 1e-05	–	–	7.26e-05 ± 1.2e-05
G29C C61U	< 1e-05	–	–	–	–
A12C A36C U54G	< 1e-05	–	–	–	–
G7U U45G	< 1e-05	< 1e-05	< 1e-05	< 1e-05	< 1e-05
A42U U69A	0.00293 ± 0.00038	0.00511 ± 0.0011	0.0164 ± 0.0051	0.0275 ± 0.012	0.101 ± 0.036
C8A A15G U54A	< 1e-05	–	–	–	< 1e-05
U2A A3U G32A	7.12e-05 ± 1.6e-05	–	–	0.0028 ± 0.00085	–
G35C G63U C71A	< 1e-05	–	–	< 1e-05	< 1e-05
A42U G51U	< 1e-05	< 1e-05	< 1e-05	–	< 1e-05
G32C C70G C71G	7.5e-05 ± 3.3e-05	–	0.000291 ± 9.2e-05	7.37e-05 ± 3.4e-05	–

Variant	self-cleavage kobs at 40 uM GlcN6P [1] [s⁻¹]	self-cleavage kobs at 160 uM GlcN6P [2] [s⁻¹]	self-cleavage kobs at 640 uM GlcN6P [3] [s⁻¹]	self-cleavage kobs at 2500 uM GlcN6P [4] [s⁻¹]	self-cleavage kobs at 10000 uM GlcN6P [5] [s⁻¹]
G7C C16G U47A	< 1e-05	< 1e-05	–	< 1e-05	< 1e-05
U57G U65A	< 1e-05	–	< 1e-05	–	–
G32A U47C A48G C71U	< 1e-05	–	–	–	–
G41U U46G C67U	< 1e-05	< 1e-05	< 1e-05	–	–
C50U U54A	< 1e-05	< 1e-05	–	–	5.02e-05 ± 9.2e-06
G32C A52C	< 1e-05	< 1e-05	< 1e-05	< 1e-05	–
G43U A48C	< 1e-05	< 1e-05	< 1e-05	< 1e-05	< 1e-05
A33C A64C	< 1e-05	< 1e-05	< 1e-05	< 1e-05	< 1e-05
G35U U69C	< 1e-05	< 1e-05	–	< 1e-05	< 1e-05
C11G G60C	< 1e-05	< 1e-05	< 1e-05	–	< 1e-05
G38U G44A	< 1e-05	< 1e-05	< 1e-05	< 1e-05	< 1e-05
G7U G35U G38U G59C	< 1e-05	–	–	–	< 1e-05
G7C C10U A15U U49C	< 1e-05	–	–	–	< 1e-05
C11G A15G A53C	< 1e-05	–	–	< 1e-05	–
G7A G38U C58A	< 1e-05	–	–	–	< 1e-05
C70U	0.00149 ± 4.2e-05	0.00417 ± 0.00021	0.0095 ± 0.00039	0.0161 ± 0.0012	0.0554 ± 0.0035
G43U C50U U55G	< 1e-05	–	< 1e-05	< 1e-05	–
G13A A39U C61U	< 1e-05	–	–	< 1e-05	–
G40C U49A	< 1e-05	–	< 1e-05	–	< 1e-05
G13A C16U G37U C67U	< 1e-05	–	–	–	–
U47C A48U C70U	< 1e-05	–	3.27e-05 ± 1.2e-05	–	0.00044 ± 9.8e-05
G9U A36G A42U G44U	< 1e-05	–	< 1e-05	< 1e-05	–
U31A C50G C58A	5.39e-05 ± 1.9e-05	–	0.00134 ± 0.00032	0.000414 ± 0.00012	–

Variant	self-cleavage kobs at 40 uM GlcN6P [1] [s⁻¹]	self-cleavage kobs at 160 uM GlcN6P [2] [s⁻¹]	self-cleavage kobs at 640 uM GlcN6P [3] [s⁻¹]	self-cleavage kobs at 2500 uM GlcN6P [4] [s⁻¹]	self-cleavage kobs at 10000 uM GlcN6P [5] [s⁻¹]
G60U C70A	< 1e-05	< 1e-05	< 1e-05	–	< 1e-05
A14U G35C A42C	< 1e-05	< 1e-05	–	–	–
G7A A15U C58A	< 1e-05	–	< 1e-05	< 1e-05	< 1e-05
A53G C61G C70U	< 1e-05	–	–	–	< 1e-05
A42C G59C	< 1e-05	< 1e-05	< 1e-05	< 1e-05	< 1e-05
C34A C68U	< 1e-05	< 1e-05	< 1e-05	< 1e-05	< 1e-05
A36G A48C	< 1e-05	< 1e-05	< 1e-05	–	< 1e-05
G40U U56A	6.75e-05 ± 1.3e-05	0.000124 ± 3.2e-05	0.000381 ± 4.4e-05	0.00116 ± 0.00022	0.00344 ± 0.00064
A15G A36G G44U	< 1e-05	–	–	< 1e-05	–
A12G A15U U49A U54G	< 1e-05	–	–	–	–
A33U U49A C71U	< 1e-05	–	–	–	< 1e-05
U30G G62U	< 1e-05	–	< 1e-05	–	< 1e-05
U30A A39U G51A A64G	< 1e-05	–	–	–	< 1e-05
G13C G43A G63A A64G	< 1e-05	–	–	–	< 1e-05
G37A U57G	< 1e-05	–	–	–	–
A6C G13A A52C	< 1e-05	–	–	< 1e-05	< 1e-05
A36C A39G G60U	< 1e-05	–	< 1e-05	< 1e-05	–
A6G G59A A64U	< 1e-05	–	< 1e-05	–	< 1e-05
G29U U46G C58G C67A	4.15e-05 ± 1.9e-05	–	–	–	5.63e-05 ± 1.4e-05
A33C G60U	< 1e-05	< 1e-05	< 1e-05	–	< 1e-05
G40A A48U C61G	< 1e-05	–	–	–	< 1e-05
G40C C50U C58A C71G	< 1e-05	–	–	–	< 1e-05
G13A C16U C67U	< 1e-05	–	–	0.000111 ± 2.7e-05	0.00025 ± 4.5e-05

Variant	self-cleavage kobs at 40 uM GlcN6P [1] [s⁻¹]	self-cleavage kobs at 160 uM GlcN6P [2] [s⁻¹]	self-cleavage kobs at 640 uM GlcN6P [3] [s⁻¹]	self-cleavage kobs at 2500 uM GlcN6P [4] [s⁻¹]	self-cleavage kobs at 10000 uM GlcN6P [5] [s⁻¹]
C34U G38U	< 1e-05	< 1e-05	< 1e-05	–	< 1e-05
G9A A39C	< 1e-05	< 1e-05	–	< 1e-05	–
C8G G51U	< 1e-05	–	< 1e-05	–	< 1e-05
G7C G51A U56A C67G C68A	0.000619 ± 0.0002	–	–	–	7.59e-05 ± 1.5e-05
G9A C68G	< 1e-05	< 1e-05	< 1e-05	< 1e-05	< 1e-05
A12C G62C	< 1e-05	–	–	< 1e-05	< 1e-05
A14U U30C C61U C68A	< 1e-05	–	–	–	–
C11U A33C A52G C67A	< 1e-05	–	–	–	–
A6G C58G C61U	< 1e-05	–	–	–	< 1e-05
C10G U30G G40U	< 1e-05	–	–	–	–
G40U G60C	< 1e-05	< 1e-05	–	< 1e-05	< 1e-05
C8U C10A C50G	9.57e-05 ± 2e-05	0.000179 ± 2.8e-05	–	8.56e-05 ± 2.1e-05	9.18e-05 ± 1.7e-05
G38C G40C A64U	< 1e-05	–	–	–	< 1e-05
A42G U49G C50U U55G G60A	< 1e-05	–	–	–	< 1e-05
U45C A53G C67G C68A	3.17e-05 ± 1.3e-05	–	–	–	8.22e-05 ± 1.3e-05
G38U A52C C61A	< 1e-05	–	–	–	–
A12C G32U C71A	< 1e-05	–	–	–	–
G43A U57A	< 1e-05	–	–	< 1e-05	< 1e-05
U31A U55C G63C C67G	< 1e-05	–	–	< 1e-05	< 1e-05
G41U G63U	< 1e-05	< 1e-05	< 1e-05	< 1e-05	< 1e-05
C8A C34G	< 1e-05	< 1e-05	< 1e-05	< 1e-05	< 1e-05
A15U U31A G32A A36U U57A C58G C71U	5.17e-05 ± 2.1e-05	–	–	–	0.000109 ± 2.6e-05
